Source: paper PMC3972757 (Biochemistry, 2013)

Target: ubiquitin (human, UniProt P0CG47 1-76)
Assay: ITC

Kd: 81 ± 15 µM
B1: Phe320Ala mutant of the catalytic domain of AMSH (domain or fragment, human, UniProt O95630 219-424, looked up)
chain: SDCHTTVRPAKPPVVDRSLKPGALSNSESIPTIDGLRHVVVPGRLCPQFLQLASANTARGVETCGILCGKLMRNEFTITHVLIPKQSAGSDYCNTENEEELALIQDQQGLITLGWIHTHPTQTAFLSSVDLHTHCSYQMMLPESVAIVCSPKFQETGFFKLTDHGLEEISSCRQKGFHPHSKDPPLFCSCSHVTVVDRAVTITDLR
